Experimental data taken from publication PMC5589196 (Cell, 2016).

B2: Tfg3 (natural protein, S. cerevisiae, UniProt P35189 1-244, looked up)
chain: MVATVKRTIRIKTQQHILPEVPPVENFPVRQWSIEIVLLDDEGKEIPATIFDKVIYHLHPTFANPNRTFTDPPFRIEEQGWGGFPLDISVFLLEKAGERKIPHDLNFLQESYEVEHVIQIPLNKPLLTEELAKSGSTEETTANTGTIGKRRTTTNTTAEPKAKRAKTGSASTVKGSVDLEKLAFGLTKLNEDDLVGVVQMVTDNKTPEMNVTNNVEEGEFIIDLYSLPEGLLKSLWDYVKKNTE

Legend:
Tfg3 = target: B2; experiment: cross-linking + cryo-EM structure
Tfg1 = target: T1, Tfg1 (S. cerevisiae, UniProt P41895 1-735); experiment: cross-linking + cryo-EM structure
T1 sequence (looked up): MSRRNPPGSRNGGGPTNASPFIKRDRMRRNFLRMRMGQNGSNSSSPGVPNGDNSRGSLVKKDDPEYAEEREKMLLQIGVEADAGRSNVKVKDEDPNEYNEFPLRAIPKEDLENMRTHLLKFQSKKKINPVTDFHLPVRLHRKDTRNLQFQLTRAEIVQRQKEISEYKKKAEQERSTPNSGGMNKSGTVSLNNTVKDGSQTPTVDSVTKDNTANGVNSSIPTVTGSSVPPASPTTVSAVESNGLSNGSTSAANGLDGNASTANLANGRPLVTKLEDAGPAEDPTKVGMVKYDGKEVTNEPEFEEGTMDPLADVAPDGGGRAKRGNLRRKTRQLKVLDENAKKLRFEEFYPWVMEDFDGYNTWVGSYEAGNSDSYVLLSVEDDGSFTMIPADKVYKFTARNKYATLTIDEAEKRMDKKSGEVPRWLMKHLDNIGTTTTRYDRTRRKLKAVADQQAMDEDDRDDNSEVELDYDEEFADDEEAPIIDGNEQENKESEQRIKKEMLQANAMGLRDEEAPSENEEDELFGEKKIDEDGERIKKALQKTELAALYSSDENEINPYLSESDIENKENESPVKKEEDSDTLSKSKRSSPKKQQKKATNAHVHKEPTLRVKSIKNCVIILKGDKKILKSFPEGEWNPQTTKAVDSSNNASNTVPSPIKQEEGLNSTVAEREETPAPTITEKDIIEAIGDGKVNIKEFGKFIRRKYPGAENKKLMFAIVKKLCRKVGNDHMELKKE

TFIIF = target: T2, TFIIF (S. cerevisiae, UniProt P41895 1-735; P41896 1-400; P35189 1-244); experiment: cross-linking
T2 sequence (looked up) 1: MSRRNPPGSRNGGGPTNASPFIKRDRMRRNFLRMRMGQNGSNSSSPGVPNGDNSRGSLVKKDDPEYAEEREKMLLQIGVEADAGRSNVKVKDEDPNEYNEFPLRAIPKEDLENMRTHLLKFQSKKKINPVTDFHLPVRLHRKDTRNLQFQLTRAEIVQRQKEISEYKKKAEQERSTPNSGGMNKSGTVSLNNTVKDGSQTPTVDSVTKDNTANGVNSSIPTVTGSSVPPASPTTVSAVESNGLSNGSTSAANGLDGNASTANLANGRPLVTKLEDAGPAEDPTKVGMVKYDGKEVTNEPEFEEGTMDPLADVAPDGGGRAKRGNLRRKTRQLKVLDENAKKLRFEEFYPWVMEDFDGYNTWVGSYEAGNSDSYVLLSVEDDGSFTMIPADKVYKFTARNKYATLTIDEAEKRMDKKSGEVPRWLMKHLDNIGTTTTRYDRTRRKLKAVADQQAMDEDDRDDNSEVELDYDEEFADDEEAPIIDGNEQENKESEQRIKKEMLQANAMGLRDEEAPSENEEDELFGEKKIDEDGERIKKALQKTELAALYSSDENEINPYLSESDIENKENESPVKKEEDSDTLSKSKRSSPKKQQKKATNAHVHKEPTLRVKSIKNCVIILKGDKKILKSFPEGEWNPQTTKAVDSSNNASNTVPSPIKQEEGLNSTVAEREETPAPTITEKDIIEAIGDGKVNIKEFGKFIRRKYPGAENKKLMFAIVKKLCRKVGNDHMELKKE
T2 sequence (looked up) 2: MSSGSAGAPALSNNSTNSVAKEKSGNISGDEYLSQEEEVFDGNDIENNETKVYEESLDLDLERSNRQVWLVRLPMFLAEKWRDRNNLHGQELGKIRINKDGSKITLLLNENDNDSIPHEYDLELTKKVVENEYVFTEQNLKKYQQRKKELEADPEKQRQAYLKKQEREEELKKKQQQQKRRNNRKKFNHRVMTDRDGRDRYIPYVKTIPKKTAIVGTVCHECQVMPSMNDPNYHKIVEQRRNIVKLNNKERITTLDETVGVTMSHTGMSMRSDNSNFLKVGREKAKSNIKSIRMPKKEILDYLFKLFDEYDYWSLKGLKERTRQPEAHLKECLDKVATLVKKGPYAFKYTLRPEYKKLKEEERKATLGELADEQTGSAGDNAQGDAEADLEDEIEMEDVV
T2 sequence (looked up) 3: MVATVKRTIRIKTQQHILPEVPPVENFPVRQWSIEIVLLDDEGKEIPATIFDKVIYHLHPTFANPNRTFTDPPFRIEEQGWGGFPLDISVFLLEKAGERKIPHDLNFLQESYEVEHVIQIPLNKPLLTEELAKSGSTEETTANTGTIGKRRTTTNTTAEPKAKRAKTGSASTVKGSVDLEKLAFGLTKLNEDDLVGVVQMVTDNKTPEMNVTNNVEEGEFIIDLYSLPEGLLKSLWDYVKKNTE

Rad3 = target: T3, Rad3 (S. cerevisiae, UniProt P06839 1-778); experiment: cross-linking
T3 sequence (looked up): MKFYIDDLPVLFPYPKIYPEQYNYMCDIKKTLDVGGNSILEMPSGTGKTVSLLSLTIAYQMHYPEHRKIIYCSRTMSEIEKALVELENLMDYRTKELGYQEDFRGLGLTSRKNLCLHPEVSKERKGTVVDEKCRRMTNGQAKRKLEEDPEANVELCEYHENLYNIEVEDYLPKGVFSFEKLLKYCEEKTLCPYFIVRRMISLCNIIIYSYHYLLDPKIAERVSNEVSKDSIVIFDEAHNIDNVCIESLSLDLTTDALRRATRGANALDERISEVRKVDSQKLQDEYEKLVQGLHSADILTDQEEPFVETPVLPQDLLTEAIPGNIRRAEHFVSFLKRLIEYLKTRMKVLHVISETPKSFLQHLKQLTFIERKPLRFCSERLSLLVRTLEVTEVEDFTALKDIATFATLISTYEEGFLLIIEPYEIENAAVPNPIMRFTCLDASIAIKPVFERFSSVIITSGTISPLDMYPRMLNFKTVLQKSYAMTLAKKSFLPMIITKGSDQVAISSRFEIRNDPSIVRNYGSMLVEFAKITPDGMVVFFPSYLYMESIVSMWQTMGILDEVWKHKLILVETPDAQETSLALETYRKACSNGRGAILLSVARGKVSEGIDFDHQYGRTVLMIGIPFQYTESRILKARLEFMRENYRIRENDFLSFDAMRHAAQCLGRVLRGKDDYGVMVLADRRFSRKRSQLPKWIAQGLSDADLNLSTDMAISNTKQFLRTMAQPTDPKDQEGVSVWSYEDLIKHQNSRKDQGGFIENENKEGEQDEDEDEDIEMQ

Med5 = target: T4, Med5 (S. cerevisiae, UniProt P53114 1-1132); experiment: cross-linking
T4 sequence (looked up): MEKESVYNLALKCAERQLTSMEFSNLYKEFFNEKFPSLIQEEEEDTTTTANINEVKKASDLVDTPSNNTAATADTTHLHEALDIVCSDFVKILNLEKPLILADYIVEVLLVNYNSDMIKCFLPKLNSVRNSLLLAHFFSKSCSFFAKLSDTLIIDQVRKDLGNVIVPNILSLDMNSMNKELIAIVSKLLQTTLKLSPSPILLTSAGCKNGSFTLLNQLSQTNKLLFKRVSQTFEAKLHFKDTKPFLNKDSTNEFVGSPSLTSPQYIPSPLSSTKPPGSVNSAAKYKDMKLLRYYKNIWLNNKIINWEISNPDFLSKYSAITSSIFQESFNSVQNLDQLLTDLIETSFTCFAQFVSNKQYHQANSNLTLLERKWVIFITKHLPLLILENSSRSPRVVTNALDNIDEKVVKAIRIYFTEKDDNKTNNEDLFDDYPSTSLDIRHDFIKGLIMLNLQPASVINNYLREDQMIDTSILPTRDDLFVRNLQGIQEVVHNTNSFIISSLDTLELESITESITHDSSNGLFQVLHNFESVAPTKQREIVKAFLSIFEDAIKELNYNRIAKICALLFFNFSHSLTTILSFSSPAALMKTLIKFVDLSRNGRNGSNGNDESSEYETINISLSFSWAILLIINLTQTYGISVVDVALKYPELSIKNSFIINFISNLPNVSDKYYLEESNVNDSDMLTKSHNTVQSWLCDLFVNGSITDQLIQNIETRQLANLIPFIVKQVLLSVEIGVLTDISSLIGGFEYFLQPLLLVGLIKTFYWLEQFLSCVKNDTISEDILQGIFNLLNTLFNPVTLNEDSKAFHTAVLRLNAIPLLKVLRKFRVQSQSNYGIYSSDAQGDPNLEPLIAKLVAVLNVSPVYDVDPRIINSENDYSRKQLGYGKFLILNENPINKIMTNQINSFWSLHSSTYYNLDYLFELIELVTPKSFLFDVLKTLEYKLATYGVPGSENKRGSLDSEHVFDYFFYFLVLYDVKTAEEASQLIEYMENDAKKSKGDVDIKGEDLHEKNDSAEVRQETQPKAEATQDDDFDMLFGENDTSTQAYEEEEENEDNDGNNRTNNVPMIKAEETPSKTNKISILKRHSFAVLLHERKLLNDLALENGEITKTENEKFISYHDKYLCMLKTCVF

B1: Rpb9 (natural protein, S. cerevisiae, UniProt P27999 1-122, looked up)
chain: MTTFRFCRDCNNMLYPREDKENNRLLFECRTCSYVEEAGSPLVYRHELITNIGETAGVVQDIGSDPTLPRSDRECPKCHSRENVFFQSQQRRKDTSMVLFFVCLSCSHIFTSDQKNKRTQFS
B1: binds (Tfg3).

B2: binds (Tfg1).

B3: TFIIE (complex, S. cerevisiae)
chain 1: MDRPIDDIVKNLLKFVVRGFYGGSFVLVLDAILFHSVLAEDDLKQLLSINKTELGPLIARLRSDRLISIHKQREYPPNSKSVERVYYYVKYPHAIDAIKWKVHQVVQRLKDDLDKNSEPNGYMCPICLTKYTQLEAVQLLNFDRTEFLCSLCDEPLVEDDSGKKNKEKQDKLNRLMDQIQPIIDSLKKIDDSRIEENTFEIALARLIPPQNQSHAAYTYNPKKGSTMFRPGDSAPLPNLMGTALGNDSSRRAGANSQATLHINITTASDEVAQRELQERQAEEKRKQNAVPEWHKQSTIGKTALGRLDNEEEFDPVVTASAMDSINPDNEPAQETSYQNNRTLTEQEMEERENEKTLNDYYAALAKKQAKLNKEEEEEEEEEEDEEEEEEEEMEDVMDDNDETARENALEDEFEDVTDTAGTAKTESNTSNDVKQESINDKTEDAVNATATASGPSANAKPNDGDDDDDDDDDEMDIEFEDV
chain 2: MSKNRDPLLANLNAFKSKVKSAPVIAPAKVGQKKTNDTVITIDGNTRKRTASERAQENTLNSAKNPVLVDIKKEAGSNSSNAISLDDDDDDEDFGSSPSKKVRPGSIAAAALQANQTDISKSHDSSKLLWATEYIQKKGKPVLVNELLDYLSMKKDDKVIELLKKLDRIEFDPKKGTFKYLSTYDVHSPSELLKLLRSQVTFKGISCKDLKDGWPQCDETINQLEEDSKILVLRTKKDKTPRYVWYNSGGNLKCIDEEFVKMWENVQLPQFAELPRKLQDLGLKPASVDPATIKRQTKRVEVKKKRQRKGKITNTHMTGILKDYSHRV
B3: binds (TFIIF).

B4: Tfb3 (natural protein, S. cerevisiae, UniProt Q03290 1-321, looked up)
chain: MLMDEYEENKDMCPICKTDRYLSPDVKFLVNPECYHRICESCVDRIFSLGPAQCPYKGCDKILRKNKFKTQIFDDVEVEKEVDIRKRVFNVFNKTIDDFNGDLVEYNKYLEEVEDIIYKLDHGIDVAKTEEKLRTYEELNKQLIMNNLERSRTEIESFEQRQKFEKEMKLKKRLLERQIEEEERMNKEWTKKEIVNRLSTTTQDINETIEGVKNTVKLKKSSARRKLEELNRVLKNNPYFNSNVNVQNSRLKDAVPFTPFNGDREAHPRFTLKGSVYNDPFIKDLEHRKEFIASGFNTNYAYERVLTEAFMGLGCVISEEL
B4: binds (Rad3).

B5: Med1 (natural protein, S. cerevisiae, UniProt Q12321 1-566, looked up)
chain: MVEGDSYVETLDSMIELFKDYKPGSITLENITRLCQTLGLESFTEELSNELSRLSTASKIIVIDVDYNKKQDRIQDVKLVLASNFDNFDYFNQRDGEHEKSNILLNSLTKYPDLKAFHNNLKFLYLLDAYSHIESDSTSHNNGSSDKSLDSSNASFNNQGKLDLFKYFTELSHYIRQCFQDNCCDFKVRTNLNDKFGIYILTQGINGKEVPLAKIYLEENKSDSQYRFYEYIYSQETKSWINESAENFSNGISLVMEIVANAKESNYTDLIWFPEDFISPELIIDKVTCSSNSSSSPPIIDLFSNNNYNSRIQLMNDFTTKLINIKKFDISNDNLDLISEILKWVQWSRIVLQNVFKLVSTPSSNSNSSELEPDYQAPFSTSTKDKNSSTSNTEPIPRSNRHGSVVEASRRRRSSTNKSKRPSITEAMMLKEEGLQQFNLHEILSEPAIEEENGDSIKEHSTTMDGANDLGFTASVSNQENAGTDIVMEDHGVLQGTSQNYGTATADDADIEMKDVSSKPSKPESSVLQLIVSEDHIILDTISECNLYDDVKCWSKFIEKFQDIVS
B5: binds (Med5).
